In PMC7035113:

Target: SA2-SCC1 complex (SA2 80-1060 in complex with SCC1 281-420) (UniProt Q8N3U4)
Assay: ITC

Chain of SA2-SCC1 complex (SA2 80-1060 in complex with SCC1 281-420) (Q8N3U4 80-1060, chain 1 of 2): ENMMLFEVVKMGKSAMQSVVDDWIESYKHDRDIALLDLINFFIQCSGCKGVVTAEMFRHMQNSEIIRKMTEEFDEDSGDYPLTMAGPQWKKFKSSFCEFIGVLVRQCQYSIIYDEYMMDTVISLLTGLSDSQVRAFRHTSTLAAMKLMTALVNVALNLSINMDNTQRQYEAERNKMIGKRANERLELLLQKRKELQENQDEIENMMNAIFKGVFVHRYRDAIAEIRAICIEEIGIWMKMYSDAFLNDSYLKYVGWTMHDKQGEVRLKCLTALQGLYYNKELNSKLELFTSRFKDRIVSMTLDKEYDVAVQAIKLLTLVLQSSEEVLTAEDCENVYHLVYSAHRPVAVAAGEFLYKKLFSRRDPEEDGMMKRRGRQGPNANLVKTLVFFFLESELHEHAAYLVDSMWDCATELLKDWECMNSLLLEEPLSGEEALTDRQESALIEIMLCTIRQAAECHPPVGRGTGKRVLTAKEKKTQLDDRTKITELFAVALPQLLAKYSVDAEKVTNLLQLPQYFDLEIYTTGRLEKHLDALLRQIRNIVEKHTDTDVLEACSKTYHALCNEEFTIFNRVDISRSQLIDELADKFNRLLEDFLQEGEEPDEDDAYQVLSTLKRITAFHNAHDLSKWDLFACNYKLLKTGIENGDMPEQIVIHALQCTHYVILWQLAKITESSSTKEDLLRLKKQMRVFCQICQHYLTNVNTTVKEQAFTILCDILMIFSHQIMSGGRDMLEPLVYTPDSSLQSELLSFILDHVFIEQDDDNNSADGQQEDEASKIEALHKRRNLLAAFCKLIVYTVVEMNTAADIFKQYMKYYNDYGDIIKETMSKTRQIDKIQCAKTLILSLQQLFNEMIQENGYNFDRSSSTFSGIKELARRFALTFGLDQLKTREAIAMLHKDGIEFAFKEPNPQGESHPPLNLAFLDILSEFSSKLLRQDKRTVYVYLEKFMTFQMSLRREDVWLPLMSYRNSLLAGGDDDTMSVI
Chain of SA2-SCC1 complex (SA2 80-1060 in complex with SCC1 281-420) (O60216 281-420, chain 2 of 2, further chain): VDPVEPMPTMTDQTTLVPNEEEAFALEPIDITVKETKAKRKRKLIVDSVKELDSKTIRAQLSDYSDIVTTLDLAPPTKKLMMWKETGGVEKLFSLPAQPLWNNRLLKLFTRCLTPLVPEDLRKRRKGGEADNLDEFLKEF

## Shugoshin (SGO1) peptide 331-341 (from UniProt Q5FBB7 331-341)
  Kd: 13.5 µM
  dH: -10.7 kcal/mol
